# Data from paper PMC12531337.
# T1: ZEB2 ZnF8 peptide (UniProt O60315 1055-1076)
# T1 chain: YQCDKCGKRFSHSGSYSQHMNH
# Target: T1, ZEB2 ZnF8 peptide
# Test: NMR
binder,measurement,value
ZnF-binding DNA (E2 box) (dsDNA) DNA 1: GTAATCTGGGCCACCTGCCTGGGAGGA DNA 2: TCCTCCCAGGCAGGTGGCCCAGATTAC,binding result,binds
